We go through 1 substance from patent US20190201479A1.

The target of the assay is IdsE of strain BB2000 with amino acids 147-169 (variable region) replaced by the equivalent sequence of IdsE from strain HI4320 (Proteus mirabilis strain BB2000; Proteus mirabilis strain HI4320). Description: cell-based or functional assay.

Regarding “IdsD from Proteus mirabilis strain BB2000 (variable region from BB2000)”, the fold reduction in colony expansion of the 1:1 coswarm (donor CCS06 with CCS05-derived recipient producing DVR-BB and EVR-HI) against the monoculture swarm of the recipient turned out to be 3.12 fold; the fold reduction in colony expansion of the 1:1 coswarm (donor CCS06 with CCS05-derived recipient producing DVR-HI and EVR-HI) against the monoculture swarm of the recipient is 3.35 fold.
